# Results from PMC10954469, “Molecular and thermodynamic determinants of self-assembly and hetero-oligomerization in the enterobacterial thermo-osmo-regulatory protein H-NS” (Nucleic Acids Research, 2024).
# T1: Cnu, co-repressor of the Hha family (E. coli, UniProt P64467 1-71)
# T1 construct: Cnu, a member of the Hha family in E. coli; harbors a sole tryptophan (W67)
# T1 sequence (looked up): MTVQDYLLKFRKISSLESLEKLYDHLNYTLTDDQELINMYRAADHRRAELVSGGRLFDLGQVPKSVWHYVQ
# B1: H-NS (histone-like or heat-stable nucleoid structuring protein), wild type (natural protein, uropathogenic E. coli)
# chain: MSEALKILNNIRTLRAQARECTLETLEEMLEKLEVVVNERREEESAAAAEVEERTRKLQQYREMLIADGIDPNELLNSLAAVKSGTKAKRAQRPAKYSYVDENGETKTWTGQGRTPAVIKKAMDEQGKSLDDFLIKQ
# notes: H-NS from uropathogenic E. coli, 137 residues as printed; Polydisperse in solution: monomers, dimers, tetramers and octamers; Expressed as H-NS:intein:CBD fusion; also called H-NS WT; wild-type H-NS; source: E. coli BL21(DE3), pTXB1 vector, purified (chitin column, intein cleavage, Superdex 200 SEC)
# Key:
# [1] = target: the molecule itself; experiment: AUC + other: differential scanning calorimetry; thermodynamic model (octamer, tetramer, dimer, folded and unfolded monomer) whose parameters were set semi-quantitatively to match AUC populations (20 °C) and DSC thermograms; constant predicted by the model for 13 °C; 150 mM ionic strength, pH 7; dimer to monomers
# [2] = target: the molecule itself; experiment: AUC + other: differential scanning calorimetry; thermodynamic model set semi-quantitatively to match AUC populations (20 °C) and DSC thermograms; constant predicted by the model for 13 °C; 300 mM ionic strength, pH 7; dimer to monomers
# [3] = target: the molecule itself; experiment: AUC + other: differential scanning calorimetry; thermodynamic model set semi-quantitatively to match AUC populations (20 °C) and DSC thermograms; constant predicted by the model for 37 °C; 300 mM ionic strength, pH 7; dimer to monomers
# [4] = target: the molecule itself; experiment: AUC + other: differential scanning calorimetry; parameters of the thermodynamic model that best capture the AUC and DSC observations; defined at the reference temperature TD 333 K; 300 mM ionic strength, pH 7; dimer to monomers
# [5] = target: the molecule itself; experiment: AUC + other: differential scanning calorimetry; parameters of the thermodynamic model that best capture the AUC and DSC observations; defined at the reference temperature TD 333 K; 150 mM ionic strength, pH 7; dimer to monomers
# [6] = target: the molecule itself; experiment: AUC + other: differential scanning calorimetry; thermodynamic model set semi-quantitatively to match AUC populations (20 °C) and DSC thermograms; constant predicted by the model for 13 °C; 300 mM ionic strength, pH 7; tetramer to dimers and octamer to tetramers (one constant KO for both steps)
# [7] = target: the molecule itself; experiment: AUC + other: differential scanning calorimetry; thermodynamic model set semi-quantitatively to match AUC populations (20 °C) and DSC thermograms; constant predicted by the model for 25 °C; 300 mM ionic strength, pH 7; tetramer to dimers and octamer to tetramers (one constant KO for both steps)
# [8] = target: the molecule itself; experiment: AUC + other: differential scanning calorimetry; thermodynamic model set semi-quantitatively to match AUC populations (20 °C) and DSC thermograms; constant predicted by the model for 25 °C; 300 mM ionic strength, pH 7; dimer to monomers
# [9] = target: the molecule itself; experiment: AUC + other: differential scanning calorimetry; thermodynamic model set semi-quantitatively to match AUC populations (20 °C) and DSC thermograms; constant predicted by the model for 13 °C; 150 mM ionic strength, pH 7; tetramer to dimers and octamer to tetramers (one constant KO for both steps)
# [10] = target: the molecule itself; experiment: AUC + other: differential scanning calorimetry; parameters of the thermodynamic model that best capture the AUC and DSC observations; defined at the reference temperature TO 333 K; 150 mM ionic strength, pH 7; tetramer to dimers and octamer to tetramers (one constant KO for both steps)
# [11] = target: the molecule itself; experiment: AUC + other: differential scanning calorimetry; thermodynamic model set semi-quantitatively to match AUC populations (20 °C) and DSC thermograms; constant predicted by the model for 37 °C; 300 mM ionic strength, pH 7; tetramer to dimers and octamer to tetramers (one constant KO for both steps)
# [12] = target: the molecule itself; experiment: AUC + other: differential scanning calorimetry; parameters of the thermodynamic model that best capture the AUC and DSC observations; defined at the reference temperature TO 333 K; 300 mM ionic strength, pH 7; tetramer to dimers and octamer to tetramers (one constant KO for both steps)
# [13] = target: the molecule itself; experiment: AUC; sedimentation velocity, 20°C, 150 mM ionic strength, pH 7, 15-200 μM protein, c(s) analysis with SEDFIT
# [14] = target: the molecule itself; experiment: AUC + other: differential scanning calorimetry; thermodynamic model brought into semi-quantitative agreement with AUC populations and DSC curves; 150 mM ionic strength, pH 7; constant at 25°C; dimer to monomers
# [15] = target: the molecule itself; experiment: AUC + other: differential scanning calorimetry; thermodynamic model brought into semi-quantitative agreement with AUC populations and DSC curves; 150 mM ionic strength, pH 7; constant at 25°C; tetramer to dimers and octamer to tetramers (one constant KO for both)
# [16] = target: the molecule itself; experiment: AUC + other: differential scanning calorimetry; thermodynamic model brought into semi-quantitative agreement with AUC populations and DSC curves; 150 mM ionic strength, pH 7; constant at 37°C; dimer to monomers
# [17] = target: the molecule itself; experiment: AUC + other: differential scanning calorimetry; thermodynamic model brought into semi-quantitative agreement with AUC populations and DSC curves; 150 mM ionic strength, pH 7; constant at 37°C; tetramer to dimers and octamer to tetramers (one constant KO for both)
# [18] = target: T1, Cnu, co-repressor of the Hha family; experiment: other fluorescence titration; tryptophan (W67) emission of 2 μM Cnu, excitation 295 nm, with 30 nM to 50 μM tryptophan-free H-NS variant; intensity-averaged wavenumber; Hill equation, apparent (K1/2); 150 mM ionic strength, pH 7, 25°C; conditions: both partners purified
# [19] = target: B1; experiment: fluorescence polarisation; steady-state tryptophan (W109) anisotropy of 2 μM wild-type H-NS with 30 nM to 50 μM H-NSm, 150 mM ionic strength, pH 7, 13, 25 and 37°C; conditions: both partners purified
# [20] = target: T1, Cnu, co-repressor of the Hha family; experiment: other fluorescence titration; tryptophan (W67) emission of 2 μM Cnu, excitation 295 nm, with 30 nM to 50 μM tryptophan-free H-NS variant; intensity-averaged wavenumber; Hill equation, apparent (K1/2); 300 mM ionic strength, pH 7, 25°C; conditions: both partners purified
binder,measurement,setting,value
"H-NS (histone-like or heat-stable nucleoid structuring protein) (natural protein, E. coli (uropathogenic), H-NS from uropathogenic E. coli, whole protein as printed in the methods; Expressed as the fusion H-NS:intein:CBD and released by cleavage with beta-mercaptoethanol; also called WT H-NS; wild-type H-NS; source: E. coli BL21(DE3), pTXB1 vector, purified (chitin column, intein-mediated cleavage, Superdex 200 SEC)) MSEALKILNNIRTLRAQARECTLETLEEMLEKLEVVVNERREEESAAAAEVEERTRKLQQYREMLIADGIDPNELLNSLAAVKSGTKAKRAQRPAKYSYVDENGETKTWTGQGRTPAVIKKAMDEQGKSLDDFLIKQ",Kd,[1],0.0238 µM
same,Kd,[2],1.19 µM
same,Kd,[3],13.6 µM
same,Kd,[4],100 µM
same,Kd,[5],1000 µM
same,Kd,[6],9.39 µM
same,Kd,[7],18.5 µM
same,Kd,[8],4.22 µM
same,Kd,[9],17 µM
same,Kd,[10],100 µM
same,Kd,[11],34.5 µM
same,Kd,[12],100 µM
"H-NS Y61E, phosphomimetic mutant (natural protein, H-NS from uropathogenic E. coli; also called Y61E mutant; source: E. coli BL21(DE3), pTXB1 vector, purified following identical protocols as H-NS) MSEALKILNNIRTLRAQARECTLETLEEMLEKLEVVVNERREEESAAAAEVEERTRKLQQEREMLIADGIDPNELLNSLAAVKSGTKAKRAQRPAKYSYVDENGETKTWTGQGRTPAVIKKAMDEQGKSLDDFLIKQ",stoichiometry N,[13],2
B1,Kd,[14],~0.5 µM
same,Kd,[15],~30 µM
same,Kd,[16],~8 µM
same,Kd,[17],~45 µM
"Y61Em (Y61E/W109F H-NS) (natural protein, H-NS from uropathogenic E. coli; source: E. coli BL21(DE3), pTXB1 vector, purified following identical protocols as H-NS) MSEALKILNNIRTLRAQARECTLETLEEMLEKLEVVVNERREEESAAAAEVEERTRKLQQEREMLIADGIDPNELLNSLAAVKSGTKAKRAQRPAKYSYVDENGETKTFTGQGRTPAVIKKAMDEQGKSLDDFLIKQ",Kd,[18],1.6 µM
"H-NSm (W109F H-NS), tryptophan null variant of H-NS (natural protein, H-NS from uropathogenic E. coli; also called H-NS tryptophan variant; source: E. coli BL21(DE3), pTXB1 vector, purified following identical protocols as H-NS) MSEALKILNNIRTLRAQARECTLETLEEMLEKLEVVVNERREEESAAAAEVEERTRKLQQYREMLIADGIDPNELLNSLAAVKSGTKAKRAQRPAKYSYVDENGETKTFTGQGRTPAVIKKAMDEQGKSLDDFLIKQ",binding result,[19],binds
same,Kd,[20],12 µM
same,Kd,[18],4 µM
